Reference: article PMC7797001 (Molecular cell, 2020)
Blank lines part the entries; values can stand above or below the molecule they belong to.

Tests used:
[1] = molecular target: SP-BM generated from human proSP-B by proteinase K (human) (UniProt P07988); experiment: reducing and non-reducing SDS-PAGE
non-reducing SDS-PAGE = molecular target: the molecule itself; experiment: non-reducing SDS-PAGE

stoichiometry N [1]: 2
Molecule: SP-BM generated from human proSP-B by proteinase K (from UniProt P07988 201-279) (domain or fragment)

B1: SP-BM purified from bovine lungs (natural protein, UniProt P15781 188-266, looked up)
chain: FPIPIPYCWLCRTLIKRIQAVIPKGVLAMTVAQVCHVVPLLVGGICQCLVERYSVILLDTLLGRMLPQLVCGLVLRCSS
stoichiometry N (non-reducing SDS-PAGE): 2
